The values that follow come from article PMC11865173, “Improving the hydrophilic microenvironment surrounding the catalytic site of fructosyltransferase enhances its catalytic ability” (Biotechnology Letters, 2025).

The subject of series [1] is T1, OC[C@H]1O[C@@](CO)(O[C@H]2O[C@H](CO)[C@@H](O)[C@H](O)[C@H]2O)[C@@H](O)[C@@H]1O.
T1 construct: codon-optimised synthetic gene downstream of alpha-factor in pPIC9K, secreted from Pichia pastoris GS115; purified by size exclusion chromatography; model covers residues 25-628; no tag mentioned
In words: glucose release measured by biosensor, Michaelis-Menten nonlinear fit. The class given is biochemical, Aspergillus niger. The settings on record: 50 °C, pH 5.5, 5 min, transfructosylation. The text has this:
(§1) glucose release measured by biosensor, Michaelis-Menten nonlinear fit on SucC

Substrate in series [2]: OC[C@H]1O[C@@](CO)(O[C@H]2O[C@H](CO)[C@@H](O)[C@H](O)[C@H]2O)[C@@H](O)[C@@H]1O
The series is described as above. Type of series: biochemical, Aspergillus niger. The settings on record: 50 °C, pH 5.5, 5 min, transfructosylation.
Excerpt: as §1

A word on the Km: it is the substrate concentration at which the rate is half of its maximum. As a reminder, the kcat is the maximal rate divided by the concentration of active sites. One may read the kcat/Km as the second-order rate constant that governs catalysis at low substrate concentration. Take SucC (Aspergillus niger; C66S): in series [1], the Km is reported as 71.14 mM, the kcat amounted to 2.27 s⁻¹ and the kcat/Km was 32 M⁻¹ s⁻¹.

B1: SucC (Aspergillus niger) (protein)
chain: MQTRASVVIDYNVAPPNLSTLPNGSLFETWRPRAHVLPPNGQIGDPCLHYTDPSTGLFHVGFLHDGSGISSATTDDLATYKDLNQGNQVIVPGGINDPVAVFDGSVIPSGINGLPTLLYTSVSFLPIHWSIPYTRGSETQSLAVSSDGGSNFTKLDQGPVIPGPPFAYNVTAFRDPYVFQNPTLDSLLHSKNNTWYTVISGGLHGKGPAQFLYRQYDPDFQYWEFLGQWWHEPTNSTWGNGTWAGRWAFNFETGNVFSLDEYGYNPHGQIFSTIGTEGSDQPVVPQLTSIHDMLWVSGNVSRNGSVSFTPNMAGFLDWGFSSYAAAGKVLPSTSLPSTKSGAPDRFISYVWLSGDLFEQAEGFPTNQQNWTGTLLLPRELRVLYIPNVVDNALARESGASWQVVSSDSSAGTVELQTLGISIARETKAALLSGTSFTESDRTLNSSGVVPFKRSPSEKFFVLSAQLSFPASARGSGLKSGFQILSSELESTTVYYQFSNESIIVDRSNTSAAARTTDGIDSSAEAGKLRLFDVLNGGEQAIETLDLTLVVDNSVLEIYANGRFALSTWVRSWYANSTNISFFQNGVGGVAFSNVTVSEGLYDAWPDRQS
notes: codon-optimised synthetic gene downstream of alpha-factor in pPIC9K, secreted from Pichia pastoris GS115; purified by size exclusion chromatography; model covers residues 25-628; no tag mentioned
In the case of B1, in series [2], the Km was 82.20 mM, the kcat came out at 1.87 s⁻¹ and the kcat/Km amounted to 22.8 M⁻¹ s⁻¹.
